Tests used:
Assay in all cases: AUC; sedimentation velocity, 50,000 rpm, absorbance optics, c(s) analysis; physiological ionic strength, buffers with Ca2+ or EDTA; 0.8-2.2 uM for full-length MASPs; dimer to monomers
[1] = target: full-length rat MASP-1 zymogen (rat) (UniProt Q8CHN8)
[2] = target: activated full-length rat MASP-1 (rat)
[3] = target: activated full-length rat MASP-2 (rat)
[4] = target: rat MASP-1 CUB1-EGF-CUB2 (MASP-1 3D) (rat) (UniProt Q8CHN8)
[5] = target: full-length rat MASP-2 zymogen (rat) (UniProt Q9JJS8)

**Q.** Which results are given for “full-length rat MASP-1 zymogen (from UniProt Q8CHN8 25-704) (enzyme)”?
**A.** Kd [1]: < 10 nM; stoichiometry N [1]: 2

**Q.** For “activated full-length rat MASP-1 (enzyme)”, which Kd [2] is on record?
**A.** The Kd was < 10 nM.

**Q.** And the stoichiometry N [2]?
**A.** Its stoichiometry N is 2.

**Q.** How did the Kd [3] turn out when “activated full-length rat MASP-2 (enzyme)” was run?
**A.** Its Kd is < 10 nM.

**Q.** And the stoichiometry N [3]?
**A.** Its stoichiometry N is 2.

**Q.** “rat MASP-1 CUB1-EGF-CUB2 (MASP-1 3D) (from UniProt Q8CHN8 61-301) (domain or fragment)” was tested. Which stoichiometry N [4] did it give?
**A.** Its stoichiometry N is 2.

**Q.** Which Kd [5] does the source give for “full-length rat MASP-2 zymogen (from UniProt Q9JJS8 20-685) (enzyme)” here?
**A.** The Kd was < 10 nM.

**Q.** What about the stoichiometry N [5] of the same substance?
**A.** The stoichiometry N was 2.

— publication PMC5300068
